Patent US20240133890A1

Molecular target: WSTF (BAZ1B) (UniProt Q9UIG0)
UniProt Q9UIG0, sequence (Q9UIG0 whole entry): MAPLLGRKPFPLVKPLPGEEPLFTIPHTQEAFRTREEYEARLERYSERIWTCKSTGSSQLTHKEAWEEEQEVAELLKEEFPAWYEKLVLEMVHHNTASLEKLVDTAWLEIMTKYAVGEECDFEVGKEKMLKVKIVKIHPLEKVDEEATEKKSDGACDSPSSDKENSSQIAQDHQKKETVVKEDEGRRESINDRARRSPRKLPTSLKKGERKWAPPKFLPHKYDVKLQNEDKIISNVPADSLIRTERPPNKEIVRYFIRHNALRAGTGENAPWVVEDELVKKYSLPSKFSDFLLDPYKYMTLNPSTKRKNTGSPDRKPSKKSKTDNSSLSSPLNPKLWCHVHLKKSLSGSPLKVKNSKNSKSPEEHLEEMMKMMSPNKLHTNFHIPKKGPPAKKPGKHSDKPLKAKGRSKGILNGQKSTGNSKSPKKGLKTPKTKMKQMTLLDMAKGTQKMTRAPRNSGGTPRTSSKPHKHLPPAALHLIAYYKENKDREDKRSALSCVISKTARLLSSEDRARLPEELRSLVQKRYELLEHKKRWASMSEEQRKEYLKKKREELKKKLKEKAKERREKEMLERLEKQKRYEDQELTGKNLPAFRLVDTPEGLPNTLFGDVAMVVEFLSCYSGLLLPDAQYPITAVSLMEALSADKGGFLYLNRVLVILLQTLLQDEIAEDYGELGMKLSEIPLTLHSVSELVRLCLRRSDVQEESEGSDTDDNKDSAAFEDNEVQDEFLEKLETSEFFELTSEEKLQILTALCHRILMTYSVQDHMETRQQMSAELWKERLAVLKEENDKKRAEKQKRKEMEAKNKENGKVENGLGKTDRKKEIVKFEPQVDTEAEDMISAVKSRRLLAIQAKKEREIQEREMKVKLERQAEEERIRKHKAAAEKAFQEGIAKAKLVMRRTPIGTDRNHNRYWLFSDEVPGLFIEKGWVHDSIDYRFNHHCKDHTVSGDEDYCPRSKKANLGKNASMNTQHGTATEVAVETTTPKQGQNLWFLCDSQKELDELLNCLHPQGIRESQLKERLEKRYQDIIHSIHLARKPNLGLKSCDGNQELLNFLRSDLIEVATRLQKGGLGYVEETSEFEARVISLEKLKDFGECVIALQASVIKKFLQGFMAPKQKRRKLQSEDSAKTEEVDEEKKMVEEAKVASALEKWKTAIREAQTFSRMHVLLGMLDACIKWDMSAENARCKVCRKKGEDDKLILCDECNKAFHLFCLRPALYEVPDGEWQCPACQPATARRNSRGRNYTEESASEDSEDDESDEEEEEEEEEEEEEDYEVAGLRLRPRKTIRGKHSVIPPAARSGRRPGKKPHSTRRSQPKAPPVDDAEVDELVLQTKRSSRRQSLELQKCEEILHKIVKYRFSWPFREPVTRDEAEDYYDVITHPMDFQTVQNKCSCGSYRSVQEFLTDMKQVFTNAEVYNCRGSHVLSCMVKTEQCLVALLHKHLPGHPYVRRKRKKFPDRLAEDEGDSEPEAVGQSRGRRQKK

## JMJD6
  level of WSTF hydroxylation (Western blot with Ab1, MCF-7 nucleoprotein): after JMJD6 knockdown or mutation, the level of WSTF hydroxylation was significantly reduced
